# Laboratory results reported in patent publication US20090053761A1, “Polypeptide Mutagenesis Method” (University College Cardiff Consultants Ltd., priority 2005, published 2009).
# B1: Wild-type (pNOM): wild-type TEM-1 β-lactamase encoded by the bla gene of pNOM, control (protein, UniProt P62593 24-286, looked up)
# Beta-lactamase TEM: HPETLVKVKDAEDQLGARVGYIELDLNSGKILESFRPEERFPMMSTFKVLLCGAVLSRVDAGQEQLGRRIHYSQNDLVEYSPVTEKHLTDGMTVRELCSAAITMSDNTAANLLLTTIGGPKELTAFLHNMGDHVTRLDRWEPELNEAIPNDERDTTMPAAMATTLRKLLTGELLTLASRQQLIDWMEADKVAGPLLRSALPAGWFIADKSGAGERGSRGIIAALGPDGKPSRIVVIYTTGSQATMDERNRQIAEIGASLIKHW
# System: E. coli
# Assay: TEM-1 β-lactamase activity in vivo: ampicillin MIC of BLA DEL library colonies
# Format: cell-based, Escherichia coli DH5α
# Settings: minimum ampicillin concentration preventing growth of E. coli DH5α carrying the bla variant in pNOM; LB agar, 37° C., 16 hr
# Protocol: The MuDel-inserted pNOM plasmids were isolated from each of the 22 colonies and equal amounts of each plasmid were pooled and subjected to restriction digestion with MlyI followed by agarose gel electrophoresis. The band corresponding to the linear pNOM minus MuDel was isolated and purified after agarose gel electrophoresis. Intramolecular ligation was performed using T4 DNA ligase and approximately 10 ng of linear pNOM (reaction conditions described above). The reaction was left at 25° C. for 10 min followed by 10 hr at 16° C. E. coli DH5α cells were transformed by electroporation with 1 μl of the ligation mixture. 500 μl of SOC medium was added to the cells immediately after electroporation and the cells were incubated at 37° C. for 1 hr. 50 μl and 500 μl of the recovering transformed cell cultures were plated on LB agar plates containing 15 μg/ml ampicillin. The plates were left overnight at 37° C. and 94 BLA^DEL library and two pNOM-containing colonies were selected and transferred to 96 deep-well culture plates containing 200 μl LB medium and 15 μg/ml ampicillin. The cells were grown for 16 hr at 37° C. with vigorous shaking. Sterile glycerol was added to 10% (v/v) for storage at −80° C.
# The TEM-1 β-lactamase activity of each colony was measured in vivo by determining the minimum inhibitory concentration (MIC) of ampicillin that prevents E. coli growth. […]
molecule,measurement,value
B1,Amp MIC,> 10000 µg/mL
